Patent US20250074980A1 (BRIGHAM AND WOMEN S HOSPITAL, published 2025)

Assays:
GST-CEACAM1 [1] = target: T1, GST-CEACAM1 (human, UniProt P13688 35-141, limits assumed); experiment: competition ELISA vs parental murine antibody
T1 construct: also called human CEACAM1-GST protein
T1 sequence: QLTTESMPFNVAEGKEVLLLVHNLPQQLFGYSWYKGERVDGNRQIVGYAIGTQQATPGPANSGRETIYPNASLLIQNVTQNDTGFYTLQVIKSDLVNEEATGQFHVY
Experimental: The binding of the purified antibodies to human CEACAM1 was assessed in a competition ELISA assay. Nunc Immuno MaxiSorp 96 well flat bottom microtitre plates were pre-coated with 1 μg/ml of GST-CEACAM1 in 1×PBS, overnight at 4° C. The following day the plates were blocked for 1 hour at room temperature (“RT”) with 2% BSA/PBS before washing 3× with PBST pH 7.4. A 3-fold dilution series of the chimeric antibody chimeric antibody VH0/Vκ0, an irrelevant IgG4 antibody, and the humanized CEACAM1 antibodies from 100 μg/ml to 0.07 or 0.002 μg/ml were pre-mixed with a constant concentration of parental murine antibody (0.45 μg/ml final concentration), added to the plate and incubated for 1 hour at room temperature. Following 3×PBST washes, the binding of the parental murine CEACAM1 antibody was detected with an anti-mouse-HRP and TMB substrate. The reaction was stopped with 3 M HCl, absorbance read at 450 nm on a Dynex Technologies MRX TC II plate reader and the binding curves plotted. The binding of the humanized CEACAM antibody variants to CEACAM1 was compared to the chimeric antibody (VHO/Vκ0), which was included on each plate.

[2] = target: T2, CEACAM5 on transfected HeLa cells (human, UniProt P06731 35-685); experiment: flow cytometry, transfected HeLa
T2 construct: whole, on cells; also called HeLa-CEACAM5; HeLa C5
T2 sequence (looked up): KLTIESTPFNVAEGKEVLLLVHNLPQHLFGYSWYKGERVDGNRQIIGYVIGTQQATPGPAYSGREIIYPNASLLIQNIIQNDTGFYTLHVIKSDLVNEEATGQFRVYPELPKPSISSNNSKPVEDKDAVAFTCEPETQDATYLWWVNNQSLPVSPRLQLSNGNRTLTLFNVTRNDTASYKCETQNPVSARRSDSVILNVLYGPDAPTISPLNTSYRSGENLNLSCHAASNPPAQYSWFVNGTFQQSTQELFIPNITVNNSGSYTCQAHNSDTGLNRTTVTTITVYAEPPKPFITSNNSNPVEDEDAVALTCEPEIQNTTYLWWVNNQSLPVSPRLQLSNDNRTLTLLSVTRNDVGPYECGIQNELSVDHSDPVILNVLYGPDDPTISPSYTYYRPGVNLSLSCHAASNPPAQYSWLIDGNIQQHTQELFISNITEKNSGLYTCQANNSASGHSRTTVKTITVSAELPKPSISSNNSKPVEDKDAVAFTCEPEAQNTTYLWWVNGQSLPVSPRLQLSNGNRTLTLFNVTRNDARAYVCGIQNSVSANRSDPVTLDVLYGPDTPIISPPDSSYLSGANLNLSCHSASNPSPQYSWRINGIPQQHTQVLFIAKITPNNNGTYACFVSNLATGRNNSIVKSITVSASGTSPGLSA

[3] = target: T3, CEACAM1 on transfected HeLa cells (human, UniProt P13688 35-526); experiment: flow cytometry, transfected HeLa
T3 construct: also called HeLa-CEACAM1; HeLa C1
T3 sequence: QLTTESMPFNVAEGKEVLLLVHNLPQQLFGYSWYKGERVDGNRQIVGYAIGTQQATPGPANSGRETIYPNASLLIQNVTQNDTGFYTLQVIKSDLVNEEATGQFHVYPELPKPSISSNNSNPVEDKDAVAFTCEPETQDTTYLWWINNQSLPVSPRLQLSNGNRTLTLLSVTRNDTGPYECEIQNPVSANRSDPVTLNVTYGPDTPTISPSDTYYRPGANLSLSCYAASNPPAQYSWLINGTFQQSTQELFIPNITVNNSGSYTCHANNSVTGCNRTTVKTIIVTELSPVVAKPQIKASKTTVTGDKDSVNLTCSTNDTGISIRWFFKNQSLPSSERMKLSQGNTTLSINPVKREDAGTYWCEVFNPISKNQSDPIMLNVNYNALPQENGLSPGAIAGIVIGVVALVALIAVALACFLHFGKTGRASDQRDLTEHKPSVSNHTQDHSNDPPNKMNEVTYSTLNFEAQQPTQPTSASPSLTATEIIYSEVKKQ

[4] = target: T4, CEACAM6 on transfected HeLa cells (human, UniProt P40199 35-320); experiment: flow cytometry, transfected HeLa
T4 construct: whole, on cells; also called HeLa-CEACAM6; HeLa C6
T4 sequence (looked up): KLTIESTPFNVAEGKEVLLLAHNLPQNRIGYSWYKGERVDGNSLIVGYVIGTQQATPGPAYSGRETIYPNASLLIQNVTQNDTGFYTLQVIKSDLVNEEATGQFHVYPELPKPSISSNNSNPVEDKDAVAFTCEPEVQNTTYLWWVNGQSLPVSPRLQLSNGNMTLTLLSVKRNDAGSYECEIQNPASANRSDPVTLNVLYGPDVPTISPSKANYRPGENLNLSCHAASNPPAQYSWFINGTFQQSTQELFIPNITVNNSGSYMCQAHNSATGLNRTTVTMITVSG

GST-CEACAM1 [5] = target: T1, GST-CEACAM1; experiment: competition ELISA vs parental murine antibody, experiment 1
His-tagged CEACAM1 = target: T5, His-tagged CEACAM1 (human, UniProt P13688 35-428); experiment: SPR multi-cycle
T5 construct: 45 kDa SPR analyte; also called CEACAM1-HIS; CEACAM1 analyte
T5 sequence: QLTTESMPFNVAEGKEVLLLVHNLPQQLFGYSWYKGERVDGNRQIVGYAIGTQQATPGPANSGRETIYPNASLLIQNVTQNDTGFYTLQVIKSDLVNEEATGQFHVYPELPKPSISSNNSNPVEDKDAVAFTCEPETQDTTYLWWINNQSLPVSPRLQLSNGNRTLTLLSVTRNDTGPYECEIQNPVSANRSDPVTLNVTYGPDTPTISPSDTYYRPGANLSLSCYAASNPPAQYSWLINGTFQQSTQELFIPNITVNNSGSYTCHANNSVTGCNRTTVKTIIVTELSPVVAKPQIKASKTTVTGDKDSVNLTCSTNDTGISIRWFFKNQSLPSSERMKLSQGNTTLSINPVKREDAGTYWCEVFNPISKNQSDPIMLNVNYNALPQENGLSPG
In short: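 Surface plasmon resonance multi-cycle kinetics on a Biacore T200 at 25° C in HBS-P+ (pH 7.4). Purified antibody at 1 μg/ml was captured on a Series S Protein A chip to ~75 RU, with His-tagged CEACAM1 analyte in 2-fold dilutions from 200 to 3.125 nM or 100 to 1.5625 nM at 80 μl/min. Association was 50 or 150 seconds and dissociation 100 seconds, with glycine-HCl pH 1.5 regeneration. Kon, koff, Kd and relative KD come from these sensorgrams.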

GST-CEACAM1 [6] = target: T1, GST-CEACAM1; experiment: competition ELISA vs parental murine antibody, experiment 2

B1: VH0/Vκ0 S29A (antibody, IgG4, V domains shown)
VH: EVQLVESGGDLVKPGGSLKLACAASGFIFSSHGMSWVRQTPDKRLEWVATISSGGTYTYYPDSVKGRFTISRDNDKNTLYLQMNSLKSEDTAMYYCARHDFDYDAAWFAYWGQGTLVTVSS
VL: QIVLTQSPALMSASPGVKVTMTCSANSAVSYMYWYRQKPRSSPKPWIYLTSNLASGVPARFSGSGSGTSYSLTISSMEAEDAATYYCQQWSSNPPTFGSGTKLEIK
notes: aglycosylated chimeric, IgG4 (S241P), kappa
B1 was tested, and the average relative IC50 (GST-CEACAM1 [1]) was 0.84, the “relative amount of cells bound” value [2] was 9.82 and the “relative amount of cells bound” value [3] was 77.9. For the same binder, the “relative amount of cells bound” value [4] was 0, the relative IC50 (GST-CEACAM1 [5]) was 0.96 and the Kd (His-tagged CEACAM1) was 110 nM. For the same binder, the koff (His-tagged CEACAM1) was 0.0277 s⁻¹, the kon (His-tagged CEACAM1) was 251000 M⁻¹ s⁻¹ and the “relative KD” value (His-tagged CEACAM1) was 1.05. It also gave a relative IC50 (GST-CEACAM1 [6]) of 0.72.
